We go through 17 molecules from patent US20260209321A1 (SINGAPORE HEALTH SERVICES PTE, published 2026).

Where a chain is given by its changes, count along the chain named.

Experiment [1] deals with T1, Peptide-biotin.
T1 construct: also called antigen
The experiment in a line: SPR Biacore 8K, purified IgG Fc-captured, Peptide-biotin analyte, 1:1 fit. As for the experimental part:
The affinity of purified antibody binding to Peptide-biotin was individually determined using a Surface Plasmon Resonance (SPR) biosensor, Biacore 8K (GE Healthcare). Antibodies were captured on the sensor chip through Fc capture method. Peptide-biotin was used as the analyte. The data of dissociation (kd) and association (ka) rate constants were obtained using Biacore 8K evaluation software. The equilibrium dissociation constants (KD) were calculated from the ratio of kd over ka.

In experiment [2] the target is T2, human TRPM4 expressed in transfected HEK 293 cells (human, UniProt Q8TD43 1-1214). Description: cell-based or functional assay.
T2 sequence (Q8TD43 whole entry): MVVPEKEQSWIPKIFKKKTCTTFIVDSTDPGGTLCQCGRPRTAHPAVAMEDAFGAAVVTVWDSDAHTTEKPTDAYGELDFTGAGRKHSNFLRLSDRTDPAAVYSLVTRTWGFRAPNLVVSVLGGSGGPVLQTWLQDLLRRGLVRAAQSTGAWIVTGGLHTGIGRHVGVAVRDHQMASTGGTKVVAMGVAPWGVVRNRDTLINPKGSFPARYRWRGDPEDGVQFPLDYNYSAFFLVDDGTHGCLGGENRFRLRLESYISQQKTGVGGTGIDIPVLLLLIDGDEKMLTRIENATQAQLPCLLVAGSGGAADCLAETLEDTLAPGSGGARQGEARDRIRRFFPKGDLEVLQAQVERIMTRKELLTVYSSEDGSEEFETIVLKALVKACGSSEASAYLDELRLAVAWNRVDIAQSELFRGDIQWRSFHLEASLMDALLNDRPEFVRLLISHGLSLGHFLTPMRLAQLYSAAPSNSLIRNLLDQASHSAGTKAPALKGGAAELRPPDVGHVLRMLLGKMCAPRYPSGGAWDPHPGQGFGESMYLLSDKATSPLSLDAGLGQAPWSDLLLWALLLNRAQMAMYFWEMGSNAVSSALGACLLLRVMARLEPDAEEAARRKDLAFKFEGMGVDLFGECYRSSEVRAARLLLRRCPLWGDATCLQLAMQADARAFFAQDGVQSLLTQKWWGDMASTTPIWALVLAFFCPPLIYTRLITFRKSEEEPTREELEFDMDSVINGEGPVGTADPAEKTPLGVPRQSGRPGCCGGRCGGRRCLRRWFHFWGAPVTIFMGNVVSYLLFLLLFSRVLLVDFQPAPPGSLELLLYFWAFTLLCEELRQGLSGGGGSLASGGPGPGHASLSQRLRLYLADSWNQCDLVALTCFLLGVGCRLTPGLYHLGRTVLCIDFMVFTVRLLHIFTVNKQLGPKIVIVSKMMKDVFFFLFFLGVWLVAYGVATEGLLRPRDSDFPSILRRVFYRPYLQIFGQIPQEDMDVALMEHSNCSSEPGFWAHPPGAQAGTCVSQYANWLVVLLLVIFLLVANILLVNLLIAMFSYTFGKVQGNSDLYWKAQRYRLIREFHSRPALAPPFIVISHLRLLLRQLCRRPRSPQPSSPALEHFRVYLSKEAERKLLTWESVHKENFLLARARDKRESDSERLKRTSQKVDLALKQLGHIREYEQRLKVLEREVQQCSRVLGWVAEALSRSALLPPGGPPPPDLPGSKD
Experiment [3] has as its target T1, Peptide-biotin. Description: SPR Biacore 8K affinity ranking; antibody Fc-captured, Peptide-biotin analyte, 1:1 fit. As for the experimental part: For affinity ranking, antibodies were captured on the sensor chip through Fc capture method. Peptide-biotin was used as the analyte. The surface was regenerated before the injection of another antibody. The process was repeated until all antibodies are analyzed. The off-rates of antibodies were obtained from fitting the experimental data locally to 1:1 interaction model using the Biacore 8K evaluation software. The antibodies were ranked by their dissociation rate constants (off-rates, kd). Based on the ranking result, the top 3 clones were selected.
Humanized antibodies were generated by replacing the framework regions (FRs) from mouse M4M antibody with counterparts from human, while maintaining the antibody's complementarity-determining regions (CDRs) binding regions. The antibody binding affinity of the chimeric and humanized antibodies was assessed by surface plasmon resonance (SPR) as shown in Table 1. Antibody clone A1 is the chimeric antibody and antibody clones A2-7 are humanized antibodies. Based on the results obtained from SPR, humanized clone A2 has the strongest SPR signal. For affinity ranking, antibodies were captured on the sensor chip through Fc capture method. Peptide-biotin was used as the analyte. The surface was regenerated before the injection of another antibody. The process was repeated until all antibodies are analyzed. The off-rates of antibodies were obtained from fitting the experimental data locally to 1:1 interaction model using the Biacore 8K evaluation software. The antibodies were ranked by their dissociation rate constants (off-rates, kd). Based on the ranking result, the top humanized clones were selected. […] Bolded and underlined amino acids correspond to the back mutation sites in the framework regions.

In experiment [4] the target is T2, human TRPM4 expressed in transfected …. Description: immunofluorescent staining of HEK 293 cells transfected with human TRPM4; colocalization with WGA (surface TRPM4).

B1: humanized anti-TRPM4 antibody clone A2 (VH1 + VL1) (antibody, human IgG1, kappa, V domains shown)
VH: QVQLQESGPGLVKPSQTLSLTCTVSGYSITSDYAWNWIRQHPGKGLEWIGYLSYSGVTSYNPSLKGRVTISVDTSKNQFSLKLSSVTAADTAVYYCARKGTYYRYEGSYWYFDVWGQGTTVTVSS
VL: DIQMTQSPSSLSASVGDRVTITCHANQNIDVWLSWYQQKPGKAPKLLIYKTSNLHTGVPSRFSGSGSGTDFTFTISSLQPEDIATYYCQQGQSYPLTFGGGTKLEIKR
notes: also called VH1 + VL1 (A2)
For B1, in experiment [1], the Kd worked out at 3.16 nM, the koff was 0.000605 s⁻¹ and the kon came out at 191000 M⁻¹ s⁻¹. In experiment [2], the “IC50 of dose-dependent inhibition of hypoxia-induced TRPM4 current increase (whole-cell patch clamp)” value came out at 1.23 µg/mL. Also, in experiment [3], the equilibrium dissociation constant (Kd) came out at 6.66 nM, the koff amounted to 0.00166 s⁻¹ and the kon was 249000 M⁻¹ s⁻¹.

B2: humanized anti-TRPM4 antibody VH3 + VL3 (antibody, V domains shown)
VH: B1 VH with E47Q, I49M, V68I, V72R
VL: B1 VL with K42N
notes: Full-length IgG
With B2, in experiment [3], binding was put at a Kd of 4.4 nM, the koff turned out to be 0.0018 s⁻¹ and the kon is 409000 M⁻¹ s⁻¹.

B3: humanized anti-TRPM4 antibody VH2 + VL3 (antibody, V domains shown)
VH: B1 VH with I49M, V72R
VL: B1 VL with K42N
notes: Full-length IgG
In experiment [3], B3 displayed a Kd of 10.8 nM, a koff of 0.00219 s⁻¹ and a kon of 203000 M⁻¹ s⁻¹.

B4: humanized anti-TRPM4 antibody VH2 + VL4 (antibody, V domains shown)
VH: B1 VH with I49M, V72R
VL: B1 VL with K42N, F73L
notes: Full-length IgG
In experiment [3], B4 yielded a Kd of 8.62 nM, a koff of 0.00185 s⁻¹ and a kon of 215000 M⁻¹ s⁻¹.

B5: humanized anti-TRPM4 antibody VH3 + VL1 (antibody, V domains shown)
VH: B1 VH with E47Q, I49M, V68I, V72R
VL: B1 VL
notes: Full-length IgG
In experiment [3], B5 came in with a Kd of 4.36 nM, a koff of 0.00149 s⁻¹ and a kon of 342000 M⁻¹ s⁻¹.

B6: humanized anti-TRPM4 antibody VH3 + VL2 (antibody, V domains shown)
VH: B1 VH with E47Q, I49M, V68I, V72R
VL: B1 VL with F73L
notes: Full-length IgG
In experiment [3], B6 came in with a Kd of 4.53 nM, an off-rate constant (koff) of 0.00198 s⁻¹ and a kon of 438000 M⁻¹ s⁻¹.

B7: humanized anti-TRPM4 antibody VH4 + VL3 (antibody, V domains shown)
VH: B1 VH with E47Q, I49M, V68I, V72R, S80F
VL: B1 VL with K42N
notes: Full-length IgG
Regarding B7, in experiment [3], the Kd stood at 4.32 nM, the koff is 0.00143 s⁻¹ and the kon is 332000 M⁻¹ s⁻¹.

B8: humanized anti-TRPM4 antibody VH4 + VL4 (antibody, V domains shown)
VH: B1 VH with E47Q, I49M, V68I, V72R, S80F
VL: B1 VL with K42N, F73L
notes: Full-length IgG
In experiment [3], B8 had a Kd of 4.43 nM, a koff of 0.00201 s⁻¹ and a kon of 454000 M⁻¹ s⁻¹.

B9: humanized anti-TRPM4 antibody VH4 + VL2 (antibody, V domains shown)
VH: B1 VH with E47Q, I49M, V68I, V72R, S80F
VL: B1 VL with F73L
notes: Full-length IgG
In experiment [3], B9 yielded a Kd of 4.37 nM, a koff of 0.00132 s⁻¹ and a kon of 303000 M⁻¹ s⁻¹.

B10: humanized anti-TRPM4 antibody VH3 + VL4 (antibody, V domains shown)
VH: B1 VH with E47Q, I49M, V68I, V72R
VL: B1 VL with K42N, F73L
notes: Full-length IgG
Regarding B10, in experiment [3], the Kd turned out to be 2.22 nM, the koff was 0.00135 s⁻¹ and the kon worked out at 608000 M⁻¹ s⁻¹.

B11: humanized anti-TRPM4 antibody VH4 + VL1 (antibody, V domains shown)
VH: B1 VH with E47Q, I49M, V68I, V72R, S80F
VL: B1 VL
notes: Full-length IgG
B11: in experiment [3], the affinity, expressed as Kd, was 4.47 nM; the koff was 0.00136 s⁻¹; the kon was found to be 305000 M⁻¹ s⁻¹.

B12: humanized anti-TRPM4 antibody clone A5 (VH1 + VL4) (antibody, V domains shown)
VH: B1 VH
VL: B1 VL with K42N, F73L
notes: Full-length IgG, IgG1 heavy chain; also called VH1 + VL4 (A5)
Turning to B12, the binding result in experiment [4] is reported as “binds”. In addition, in experiment [3], binding was put at a Kd of 9.96 nM, the koff was 0.00217 s⁻¹ and the kon worked out at 217000 M⁻¹ s⁻¹.

B13: humanized anti-TRPM4 antibody clone A7 (VH2 + VL2) (antibody, V domains shown)
VH: B1 VH with I49M, V72R
VL: B1 VL with F73L
notes: Full-length IgG, IgG1 heavy chain; also called VH2 + VL2 (A7)
Consider B13, for which the binding result in experiment [4] is listed as “binds”. Also, in experiment [3], binding was characterised by a dissociation constant (Kd) of 11.5 nM, the koff worked out at 0.00295 s⁻¹ and the kon worked out at 256000 M⁻¹ s⁻¹.

B14: humanized anti-TRPM4 antibody clone A3 (VH1 + VL2) (antibody, V domains shown)
VH: B1 VH
VL: B1 VL with F73L
notes: Full-length IgG, IgG1 heavy chain; also called VH1 + VL2 (A3)
As to B14, the binding result in experiment [4] is listed as “binds”. Also, in experiment [3], the Kd was determined as 9.81 nM, the off-rate (koff) is 0.00321 s⁻¹ and the kon stood at 327000 M⁻¹ s⁻¹.

B15: humanized anti-TRPM4 antibody clone A6 (VH2 + VL1) (antibody, V domains shown)
VH: B1 VH with I49M, V72R
VL: B1 VL
notes: Full-length IgG, IgG1 heavy chain; also called VH2 + VL1 (A6)
As to B15, the binding result in experiment [4] was “binds”. In experiment [1], this molecule showed a Kd of 4.02 nM, a koff of 0.000662 s⁻¹ and a kon of 165000 M⁻¹ s⁻¹. In addition, in experiment [3], binding was characterised by a dissociation constant (Kd) of 10.6 nM, the off-rate constant (koff) was 0.00195 s⁻¹ and the kon was found to be 184000 M⁻¹ s⁻¹.

B16: humanized anti-TRPM4 antibody clone A4 (VH1 + VL3) (antibody, V domains shown)
VH: B1 VH
VL: B1 VL with K42N
notes: Full-length IgG, IgG1 heavy chain; also called VH1 + VL3 (A4)
As for B16, the binding result in experiment [4] is “binds”. Besides, in experiment [1], the Kd worked out at 3.18 nM, the koff came to 0.00062 s⁻¹ and the association rate constant (kon) worked out at 195000 M⁻¹ s⁻¹. In experiment [3], this molecule returned a Kd of 7 nM, a koff of 0.00177 s⁻¹ and a kon of 252000 M⁻¹ s⁻¹.

B17: anti-TRPM4 chimeric antibody clone A1 (VH + VL) (antibody, V domains shown)
VH: QVQLQESGPGLVKPSQSLSLTCTVTGYSITSDYAWNWIRQFPGNKLQWMGYLSYSGVTSYNPSLKGRISITRDTSKNQFFLQLSSVTPEDTATYYCARKGTYYRYEGSYWYFDVWGAGTTVTVSS
VL: DIQMNQSPSSLSASLGDTITITCHANQNIDVWLSWYQQKPGNVPKLLIYKTSNLHTGVPSRFSGSGSGTDFTLTISSLQPEDIATYYCQQGQSYPLTFGGGTKLEIK
notes: also called VH + VL (A1)
As for B17, the binding result in experiment [4] is “binds”. In experiment [1], binding was put at a Kd of 1.74 nM, the koff is 0.000543 s⁻¹ and the kon amounted to 312000 M⁻¹ s⁻¹. Further, in experiment [3], the Kd came to 4.61 nM, the koff turned out to be 0.0015 s⁻¹ and the kon turned out to be 325000 M⁻¹ s⁻¹.
